# Laboratory results as given in PMC4028250, “β1,6 GlcNAc Branches-Modified PTPRT Attenuates Its Activity and Promotes Cell Migration by STAT3 Pathway” (PLoS ONE, 2014).
# B1: receptor protein tyrosine phosphatase rho (PTPRT) (receptor, human (endogenous in SMMC-7721 and HT29), UniProt O14522 26-1441, looked up)
# chain: QSAAGGCSFDEHYSNCGYSVALGTNGFTWEQINTWEKPMLDQAVPTGSFMMVNSSGRASGQKAHLLLPTLKENDTHCIDFHYYFSSRDRSSPGALNVYVKVNGGPQGNPVWNVSGVVTEGWVKAELAISTFWPHFYQVIFESVSLKGHPGYIAVDEVRVLAHPCRKAPHFLRLQNVEVNVGQNATFQCIAGGKWSQHDKLWLQQWNGRDTALMVTRVVNHRRFSATVSVADTAQRSVSKYRCVIRSDGGSGVSNYAELIVKEPPTPIAPPELLAVGATYLWIKPNANSIIGDGPIILKEVEYRTTTGTWAETHIVDSPNYKLWHLDPDVEYEIRVLLTRPGEGGTGPPGPPLTTRTKCADPVHGPQNVEIVDIRARQLTLQWEPFGYAVTRCHSYNLTVQYQYVFNQQQYEAEEVIQTSSHYTLRGLRPFMTIRLRLLLSNPEGRMESEELVVQTEEDVPGAVPLESIQGGPFEEKIYIQWKPPNETNGVITLYEINYKAVGSLDPSADLSSQRGKVFKLRNETHHLFVGLYPGTTYSFTIKASTAKGFGPPVTTRIATKISAPSMPEYDTDTPLNETDTTITVMLKPAQSRGAPVSVYQLVVKEERLQKSRRAADIIECFSVPVSYRNASSLDSLHYFAAELKPANLPVTQPFTVGDNKTYNGYWNPPLSPLKSYSIYFQALSKANGETKINCVRLATKGASTQNSNTVEPEKQVDNTVKMAGVIAGLLMFIIILLGVMLTIKRRRNAYSYSYYLKLAKKQKETQSGAQREMGPVASADKPTTKLSASRNDEGFSSSSQDVNGFTDGSRGELSQPTLTIQTHPYRTCDPVEMSYPRDQFQPAIRVADLLQHITQMKRGQGYGFKEEYEALPEGQTASWDTAKEDENRNKNRYGNIISYDHSRVRLLVLDGDPHSDYINANYIDGYHRPRHYIATQGPMQETVKDFWRMIWQENSASIVMVTNLVEVGRVKCVRYWPDDTEVYGDIKVTLIETEPLAEYVIRTFTVQKKGYHEIRELRLFHFTSWPDHGVPCYATGLLGFVRQVKFLNPPEAGPIVVHCSAGAGRTGCFIAIDTMLDMAENEGVVDIFNCVRELRAQRVNLVQTEEQYVFVHDAILEACLCGNTAIPVCEFRSLYYNISRLDPQTNSSQIKDEFQTLNIVTPRVRPEDCSIGLLPRNHDKNRSMDVLPLDRCLPFLISVDGESSNYINAALMDSHKQPAAFVVTQHPLPNTVADFWRLVFDYNCSSVVMLNEMDTAQFCMQYWPEKTSGCYGPIQVEFVSADIDEDIIHRIFRICNMARPQDGYRIVQHLQYIGWPAYRDTPPSKRSLLKVVRRLEKWQEQYDGREGRTVVHCLNGGGRSGTFCAICSVCEMIQQQNIIDVFHIVKTLRNNKSNMVETLEQYKFVYEVALEYLSSF
# modifications: N-glycans with β1,6 GlcNAc branches (tri- and tetra-antennary), more of them in GnT-V overexpressing cells; sites not mapped
# notes: receptor protein tyrosine phosphatase rho (PTPRT), type IIB receptor-like PTP, endogenous in human SMMC-7721 and HT29 cells; One molecule for PTPRT of Mock and of GnT-V overexpressing cells: the two differ only in the amount of β1,6 GlcNAc branches on unmapped N-glycan sites; also called PTPRT (ρ); source: endogenous, SMMC-7721 and HT29 cells stably infected with pCDH-puro (Mock) or …
# Target: the molecule itself
# Assay: cross-linking; Mock-7721, GnT-V-7721, Mock-HT29 and GnT-V-HT29 cells grown to confluence, cell-surface proteins cross-linked with 3 mM BS3 for 2 hours at 4°C (on ice), stopped with 20 mM Tris-Cl, SDS lysis, immunoblot for PTPRT; dimer and monomer bands quantified with Image J
protein,measurement,value
B1,"intensity ratio of dimer to monomer, GnT-V cells against Mock cells",~2 fold
same,stoichiometry N,2
